According to article PMC4282830:

Target: guanidine hydrochloride denatured vitamin D binding protein (human) (UniProt P02774)
Assay: covalent complex formation, reducing SDS-PAGE and immunoblot

UniProt P02774, sequence (P02774 17-474): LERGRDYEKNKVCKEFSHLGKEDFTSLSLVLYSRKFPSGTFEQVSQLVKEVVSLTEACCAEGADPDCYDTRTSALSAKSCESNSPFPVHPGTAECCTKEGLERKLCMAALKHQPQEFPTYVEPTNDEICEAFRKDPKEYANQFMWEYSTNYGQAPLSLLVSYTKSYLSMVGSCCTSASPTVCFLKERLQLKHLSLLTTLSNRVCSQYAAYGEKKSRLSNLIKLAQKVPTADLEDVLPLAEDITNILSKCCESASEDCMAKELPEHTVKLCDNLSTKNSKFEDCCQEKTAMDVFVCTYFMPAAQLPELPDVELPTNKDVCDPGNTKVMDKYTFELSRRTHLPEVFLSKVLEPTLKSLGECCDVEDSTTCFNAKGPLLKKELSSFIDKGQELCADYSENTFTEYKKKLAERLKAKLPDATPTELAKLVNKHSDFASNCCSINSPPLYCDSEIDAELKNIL

Work on complement C3b (natural protein) yielded a fold increase in intensity of the C3b:DBP band, denatured versus native DBP of 5 fold.
